Article doi:10.1101/385401 (bioRxiv, 2018)
Changes are numbered by the printed parent chain. Names and notes keep the numbering of the source. Read-outs that look alike come from different tables or passages of the source.

B1: Escherichia coli (Ec) dGTPase, wild type (enzyme, UniProt P15723 1-505, looked up)
chain: MAQIDFRKKINWHRRYRSPQGVKTEHEILRIFESDRGRIINSPAIRRLQQKTQVFPLERNAAVRTRLTHSMEVQQVGRYIAKEILSRLKELKLLEAYGLDELTGPFESIVEMSCLMHDIGNPPFGHFGEAAINDWFRQRLHPEDAESQPLTDDRCSVAALRLRDGEEPLNELRRKIRQDLCHFEGNAQGIRLVHTLMRMNLTWAQVGGILKYTRPAWWRGETPETHHYLMKKPGYYLSEEAYIARLRKELNLALYSRFPLTWIMEAADDISYCVADLEDAVEKRIFTVEQLYHHLHEAWGQHEKGSLFSLVVENAWEKSRSNSLSRSTEDQFFMYLRVNTLNKLVPYAAQRFIDNLPAIFAGTFNHALLEDASECSDLLKLYKNVAVKHVFSHPDVERLELQGYRVISGLLEIYRPLLSLSLSDFTELVEKERVKRFPIESRLFHKLSTRHRLAYVEAVSKLPSDSPEFPLWEYYYRCRLLQDYISGMTDLYAWDEYRRLMAVEQ
B2: Ec-dGTPase H126A variant (enzyme, Escherichia coli, UniProt P15723 1-505, looked up)
chain: B1 chain with H126A
B3: Ec-dGTPase Y272A variant (enzyme, Escherichia coli, UniProt P15723 1-505, looked up)
chain: B1 chain with Y272A
B4: selenium methionine labelled Ec-dGTPase (enzyme, Escherichia coli, UniProt P15723 1-505, looked up)
chain: B1 chain
modifications: selenium methionine labelled
B5: Ec-dGTPase E129A variant (enzyme, Escherichia coli, UniProt P15723 1-505, looked up)
chain: B1 chain with E129A

Key:
crystal structure = molecular target: the molecule itself; test: crystal structure
[1] = molecular target: the molecule itself

Protein | stoichiometry N (crystal structure) | stoichiometry N [1]
B1 | 6 | –
B2 | – | 6
B3 | – | 6
B4 | 6 | –
B5 | – | 6
